Earlier results as cited in patent US20230149374A1, “METHODS AND COMPOSITIONS FOR TREATING ATHEROSCLEROSIS” (Sanford Burnham Prebys Medical Discovery Institute, priority 2021, published 2023).

System: patient with TNAP deficiency
Conditions: administration for 8 months, very high blood TNAP activity; cited from earlier work

B1: recombinant TNAP: recombinant TNAP administered for 8 months in a patient with TNAP deficiency (protein, UniProt P05186 18-501, looked up)
Alkaline phosphatase, …: LVPEKEKDPKYWRDQAQETLKYALELQKLNTNVAKNVIMFLGDGMGVSTVTAARILKGQLHHNPGEETRLEMDKFPFVALSKTYNTNAQVPDSAGTATAYLCGVKANEGTVGVSAATERSRCNTTQGNEVTSILRWAKDAGKSVGIVTTTRVNHATPSAAYAHSADRDWYSDNEMPPEALSQGCKDIAYQLMHNIRDIDVIMGGGRKYMYPKNKTDVEYESDEKARGTRLDGLDLVDTWKSFKPRYKHSHFIWNRTELLTLDPHNVDYLLGLFEPGDMQYELNRNNVTDPSLSEMVVVAIQILRKNPKGFFLLVEGGRIDHGHHEGKAKQALHEAVEMDRAIGQAGSLTSSEDTLTVVTADHSHVFTFGGYTPRGNSIFGLAPMLSDTDKKPFTAILYGNGPGYKVVGGERENVSMVDYAHNNYQAQSAVPLRHETHGGEDVAVFSKGPMAHLLHGVHEQNYVPHVMAYAACIGANLGHCAPAS
In the case of B1, the vascular calcium score is given as “did not increase”.
